± gives the standard deviation of the averaged measurements.
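Further: ATP exposure 15 min at 22 °C before imaging.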

For the data set, the system named is ATP. As to the kind of experiment: switch fluorescence ratio, 500 uM ATP over buffer (Cy3 cluster intensity, sum of 5 cycles each) (fold (ratio)); higher = stronger signal-on switching upon ATP binding; sequences stand for … in TCGTCGGCAGCGTCAGATGTGTATAAGAGACAGTTTTTTTTTTTTTTTTTTTTTTTTT…TC. The note with it: aptamer strand: ATP DNA aptamer (quencher-CACCTGGGGGAGTATTGCGGAGGAAGG + anchor), 100 nM annealed; ATP concentration: 500 uM. The essentials:
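Values give the fluorescence ratio for each switch-domain sequence, averaged from per-cluster ratios of summed target-cycle to summed buffer-cycle Cy3 intensity. The Cy3-labelled switching-strand clusters sat on a modified Illumina MiSeq flow-cell, were annealed to 100 nM quencher-labelled ATP aptamer, and were imaged in selection buffer, then after 15 min with 500 uM ATP at 22 °C. Five cycles ran with NaOH stripping and re-annealing between them, and clusters outside 100-1000 RFU were excluded.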
In the case of TTTTTTTCGC, the switch fluorescence ratio turned out to be 1.01 ± 0.032.
Next, AATTGAAGAT: 1.03 ± 0.039; TGTTTTTGT: 1.18 ± 0.29.
Next, ACGAACTTGA: 1.19 ± 0.055.
Next, GAGTGGTTTA: 0.9913 ± 0.0096; GAGTGAGGGA: 1.03 ± 0.024.
Regarding ACACAGAGTT, the switch fluorescence ratio amounted to 1.03 ± 0.014.
In the case of TTTCGGTCCC, the switch fluorescence ratio was 1.02 ± 0.021.
Next, GGAGGGCAAC: 1.01 ± 0.028; GCGGGGGCTT: 0.98 ± 0.033.
Next, GGTGATAGCT: 0.987 ± 0.076.
The value for TTAATTTAAG was 0.992 ± 0.038; that for GCTTGGGGTG was 1.02 ± 0.024; that for GAATGGGGTG was 1.02 ± 0.041.
For the sequence ATGATTTTGG, the switch fluorescence ratio is 0.992 ± 0.023.
Next, GAAGTTGTTT: 1.018 ± 0.002.
The value for AGCTTAAGAC was 1.36 ± 0.041.
The value for AGGCCTTGGC was 1.018 ± 0.0039.
Consider GCTCGTTATA, for which the switch fluorescence ratio is 1.02 ± 0.019.
For the sequence TTATATCTTG, the switch fluorescence ratio turned out to be 1.0191 ± 0.00086.
Next, AGATTTTTGT: 0.972 ± 0.019.
The value for CGGGGTAGGG was 0.983 ± 0.016.
The value for ATTAGGATAG was 1 ± 0.054; that for GTGTTTTCCA was 0.985 ± 0.036.
Consider TCAGTAGCGG, for which the switch fluorescence ratio amounted to 1.07 ± 0.1.
In the case of GATTTCGGTC, the switch fluorescence ratio was 1.05 ± 0.056.
The value for TTGAGGGCGG was 1.005 ± 0.0098; that for ATTGAGGTTT was 0.992 ± 0.022; that for GTTTGATGAA was 0.994 ± 0.084.
Next, GATGTAGACT: 0.9818 ± 0.0033.
Next, AGGTTAAAGG: 1 ± 0.016.
For the sequence GTGGTAACTT, the switch fluorescence ratio came out at 1.007 ± 0.0082.
The value for TGGGCGTTTA was 1.04 ± 0.026; that for GAGTAGGGTT was 0.983 ± 0.018.
As to AACATGCTTA, the switch fluorescence ratio was 0.972 ± 0.02.
The value for ATCGGGTGTA was 0.994 ± 0.013; that for CCGGGTAAGG was 0.9989 ± 0.0045.
The value for TTACTTTCCG was 1.11 ± 0.019; that for TACGCTCTCA was 1.21 ± 0.23; that for CGTCATATGG was 1.07 ± 0.012.
Next, AAGGAGGTTT: 1.01 ± 0.031; TGGAATAGAA: 1.01 ± 0.02.
Consider AGCGTGACTG, for which the switch fluorescence ratio came out at 0.987 ± 0.019.
The value for GCAGTCCTTT was 0.958 ± 0.029; that for ACCGATTTTT was 1.047 ± 0.01; that for AATGGGTTAT was 0.992 ± 0.025.
The value for TGGGTTTGGA was 1.03 ± 0.049; that for AAGTCAAGTA was 0.9581 ± 0.0054; that for CATAAAGGAG was 1.01 ± 0.016.
The value for CTCTGTTTGC was 1.803 ± 0.0037.
On to AGGGGAGGGC, for which the switch fluorescence ratio amounted to 0.998 ± 0.042.
Turning to TGATGAAGAT, the switch fluorescence ratio is 0.9817 ± 0.0071.
Next, ATAAGTAACG: 1 ± 0.015.
Next, GGCGCTTTTC: 1 ± 0.058.
The value for GCCGGGCGGG was 0.999 ± 0.038; that for CAACGGGTTA was 0.998 ± 0.0077; that for AATCTTCTGT was 0.982 ± 0.04.
Take GAAGTCATTT: the switch fluorescence ratio came out at 0.9828 ± 0.0031.
The value for TAAGCAATGT was 2.69 ± 1.1; that for CAATCCATTG was 0.994 ± 0.024.
The value for AGTTGGGTTT was 0.9964 ± 0.0071; that for TTATATGGAG was 0.979 ± 0.034.
The value for GATTGTTTTA was 1.02 ± 0.016; that for GTGGGAAGTG was 0.975 ± 0.025; that for TTAGAATGTA was 0.99 ± 0.023.
Consider AGGGTTGGGG, for which the switch fluorescence ratio worked out at 0.991 ± 0.031.

These data come from the supplement of paper PMC10126150.
